In patent US20090155249A1 (AC IMMUNE S A, published 2009):

Target: Amyloid Beta (antigen of the Amyloid Beta ELISA) (UniProt P05067 672-713, limits assumed)
Test: Amyloid Beta ELISA, purified antibodies, A405

Sequence of Amyloid Beta (antigen of the Amyloid Beta ELISA) (P05067 672-713 limits assumed): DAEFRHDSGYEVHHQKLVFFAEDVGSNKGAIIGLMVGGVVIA

B1: chimeric antibody C2 ChVH AF/ChVK (antibody, V domains shown)
VH: EVQLVESGGGLVQPGGSLKLSCAASGFTFSSYGMSWVRQTPDKRLELVASINSNGGSTYYPDSVKGRFTISRDNAKNTLYLQMSSLKSEDTAMYYCASGDYWGQGSTLTVSS
VL: DVVMTQTPLSLPVSLGDQASISCRSSQSLVYSNGDTYLHWYLQKPGQSPKLLIYKVSNRFSGVPDRFSGSGSGTDFTLKISRVEAEDLGVYFCSQSTHVPWTFGGGTKLEIKR
notes: both forms are written under this id; also called C2 VH AF/C2 VK chimeric antibody; chimeric AF
For B1, the “EC50 (read off the curve)” value was about 3 ng/well.
